The text below walks through data of paper PMC3511314, “Functional Characterization of Two M42 Aminopeptidases Erroneously Annotated as Cellulases” (PLoS ONE, 2012).

Data set [1] concerns the molecule itself. The data set can be described thus: SEC; gel filtration on Superdex 200 (16/70 column), final step of the purification, 50 mM Tris, 300 mM NaCl pH 7.3; for CelM all buffers with 1 mM glutathione; oligomer size from the apparent mass at elution.
Data set [2] deals with the molecule itself. Briefly: not stated; unpublished data; oligomeric state of YpdE, method not given.

B1: TmPep1050 protein of Thermotoga maritima (TM1050 ORF) (enzyme, UniProt Q9X0E0 1-331, looked up)
chain: MKELIRKLTEAFGPSGREEEVRSIILEELEGHIDGHRIDGLGNLIVWKGSGEKKVILDAHIDEIGVVVTNVDDKGFLTIEPVGGVSPYMLLGKRIRFENGTIGVVGMEGETTEERQENVRKLSFDKLFIDIGANSREEAQKMCPIGSFGVYDSGFVEVSGKYVSKAMDDRIGCAVIVEVFKRIKPAVTLYGVFSVQEEVGLVGASVAGYGVPADEAIAIDVTDSADTPKAIKRHAMRLSGGPALKVKDRASISSKRILENLIEIAEKFDIKYQMEVLTFGGTNAMGYQRTREGIPSATVSIPTRYVHSPSEMIAPDDVEATVDLLIRYLGA
notes: TmPep1050, M42 aminopeptidase of Thermotoga maritima, product of the TM1050 ORF carried by the JCSG plasmid TmCD00089984; predicted molecular weight of the monomer 37.5 kDa; the tag of the JCSG construct is not described; also called 3ISX; source: E. coli MC1061, plasmid TmCD00089984, purified (heat step 60°C, Ni-NTA IMAC, Superdex 200)
In general, stoichiometry N refers to a count of units in the complex or per binding partner. Take B1: the “stoichiometry N” value in data set [1] stood at 2.

B2: YpdE, M42 aminopeptidase of E. coli (enzyme, UniProt P77585 1-345, looked up)
chain: MDLSLLKALSEADAIASSEQEVRQILLEEADRLQKEVRFDGLGSVLIRLNESTGPKVMICAHMDEVGFMVRSISREGAIDVLPVGNVRMAARQLQPVRITTREECKIPGLLDGDRQGNDVSAMRVDIGARSYDEVMQAGIRPGDRVTFDTTFQVLPHQRVMGKAFDDRLGCYLLVTLLRELHDAELPAEVWLVASSSEEVGLRGGQTATRAVSPDVAIVLDTACWAKNFDYGAANHRQIGNGPMLVLSDKSLIAPPKLTAWVETVAAEIGVPLQADMFSNGGTDGGAVHLTGTGVPTVVMGPATRHGHCAASIADCRDILQMQQLLSALIQRLTRETVVQLTDFR
notes: YpdE, one of three M42 aminopeptidases of E. coli; Only named in the discussion as unpublished data; the construct is not described; copies: 12
With B2, the “stoichiometry N” value in data set [2] worked out at 12.
